Measurements as given in article PMC9482650, “Quantitative fragmentomics allow affinity mapping of interactomes” (Nature Communications, 2022).
Values belong to the binder of their own block, whether it stands above or below them.

Columns and labels:
Assay in all cases: holdup assay
Set-up in all cases: key: below the threshold = too weak to quantify, mostly under pKd 3.1 to 4
PCLO, Q9Y6V0 = target: T1, PCLO, Q9Y6V0
T1 sequence (Q9Y6V0 4491-4600, limits assumed, looked up): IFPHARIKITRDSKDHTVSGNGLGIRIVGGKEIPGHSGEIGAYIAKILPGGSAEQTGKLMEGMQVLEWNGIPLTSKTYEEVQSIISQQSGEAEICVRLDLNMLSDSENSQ

ARHGAP21, Q5T5U3 = target: T2, ARHGAP21, Q5T5U3
T2 sequence (Q5T5U3 45-169, limits assumed, looked up): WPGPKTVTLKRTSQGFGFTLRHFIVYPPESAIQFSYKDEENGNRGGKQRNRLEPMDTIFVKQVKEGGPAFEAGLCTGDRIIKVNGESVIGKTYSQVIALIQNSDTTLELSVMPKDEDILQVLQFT

MAGI1_1, Q96QZ7 = target: MAGI1_1, Q96QZ7
MAGI1_1, Q96QZ7, sequence (Q96QZ7 1-106): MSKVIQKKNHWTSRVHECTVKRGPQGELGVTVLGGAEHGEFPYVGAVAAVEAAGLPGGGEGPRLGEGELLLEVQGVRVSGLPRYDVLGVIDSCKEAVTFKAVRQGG

APBA1_1, Q02410 = target: T3, APBA1_1, Q02410
T3 sequence (Q02410 651-752, limits assumed, looked up): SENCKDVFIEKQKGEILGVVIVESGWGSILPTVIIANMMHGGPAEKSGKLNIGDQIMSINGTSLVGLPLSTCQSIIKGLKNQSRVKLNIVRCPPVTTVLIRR

DLG3_1, Q92796 = target: T4, DLG3_1, Q92796
T4 sequence (Q92796 125-227, limits assumed, looked up): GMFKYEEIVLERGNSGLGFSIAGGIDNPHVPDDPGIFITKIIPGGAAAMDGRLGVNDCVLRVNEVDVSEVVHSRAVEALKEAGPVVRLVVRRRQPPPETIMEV

PTPN3, P26045 = target: PTPN3, P26045
PTPN3, P26045, sequence (P26045 505-587): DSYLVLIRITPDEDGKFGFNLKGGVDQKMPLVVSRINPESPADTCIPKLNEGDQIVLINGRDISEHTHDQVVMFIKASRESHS

TJP3_3, O95049 = target: T5, TJP3_3, O95049
T5 sequence (O95049 375-456, limits assumed, looked up): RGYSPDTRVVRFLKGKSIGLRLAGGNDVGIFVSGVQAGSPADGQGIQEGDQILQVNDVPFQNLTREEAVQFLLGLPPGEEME

DLG1_1, Q12959 = target: DLG1_1, Q12959
LIMK2, P53671 = target: LIMK2, P53671
LIMK2, P53671, sequence (P53671 143-248): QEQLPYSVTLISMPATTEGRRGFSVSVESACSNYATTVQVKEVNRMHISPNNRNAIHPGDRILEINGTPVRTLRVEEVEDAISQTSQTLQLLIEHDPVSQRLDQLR

RHPN1, Q8TCX5 = target: T6, RHPN1, Q8TCX5
T6 sequence (Q8TCX5 508-602, limits assumed, looked up): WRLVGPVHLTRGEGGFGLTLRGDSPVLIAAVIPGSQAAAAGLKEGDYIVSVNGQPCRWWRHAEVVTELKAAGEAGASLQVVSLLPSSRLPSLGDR

MPP6, Q9NZW5 = target: T7, MPP6, Q9NZW5
T7 sequence (Q9NZW5 125-219, limits assumed, looked up): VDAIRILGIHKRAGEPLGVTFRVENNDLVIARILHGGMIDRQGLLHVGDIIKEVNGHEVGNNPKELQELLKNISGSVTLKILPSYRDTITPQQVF

PDZRN4_1, Q6ZMN7 = target: PDZRN4_1, Q6ZMN7
PDZRN4_1, Q6ZMN7, sequence (Q6ZMN7 213-318): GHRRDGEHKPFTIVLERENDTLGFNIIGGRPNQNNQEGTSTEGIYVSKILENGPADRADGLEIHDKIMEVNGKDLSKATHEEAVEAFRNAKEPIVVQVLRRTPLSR

HTRA3, P83110 = target: T8, HTRA3, P83110
T8 sequence (P83110 354-453, limits assumed, looked up): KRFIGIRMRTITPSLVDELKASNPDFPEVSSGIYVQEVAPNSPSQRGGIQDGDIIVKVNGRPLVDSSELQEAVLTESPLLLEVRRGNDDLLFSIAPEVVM

GORASP1, Q9BQQ3 = target: GORASP1, Q9BQQ3
GORASP1, Q9BQQ3, sequence (Q9BQQ3 1-208): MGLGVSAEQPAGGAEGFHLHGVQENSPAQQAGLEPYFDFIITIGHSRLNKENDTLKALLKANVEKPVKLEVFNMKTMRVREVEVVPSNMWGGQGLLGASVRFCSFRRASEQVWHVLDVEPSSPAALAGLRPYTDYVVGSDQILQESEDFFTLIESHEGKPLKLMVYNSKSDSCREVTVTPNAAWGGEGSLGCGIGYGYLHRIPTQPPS

LNX1_3, Q8TBB1 = target: LNX1_3, Q8TBB1
LNX1_3, Q8TBB1, sequence (Q8TBB1 500-596): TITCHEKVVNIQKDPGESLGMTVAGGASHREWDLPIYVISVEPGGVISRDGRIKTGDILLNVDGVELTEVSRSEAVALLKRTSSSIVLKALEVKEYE

DFNB31_1, Q9P202 = target: T9, DFNB31_1, Q9P202
T9 sequence (Q9P202 135-233, limits assumed, looked up): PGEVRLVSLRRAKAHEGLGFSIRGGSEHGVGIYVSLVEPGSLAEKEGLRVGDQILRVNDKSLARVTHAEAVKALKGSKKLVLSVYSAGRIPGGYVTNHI

MPDZ_5, O75970 = target: T10, MPDZ_5, O75970
T10 sequence (O75970 695-796, limits assumed, looked up): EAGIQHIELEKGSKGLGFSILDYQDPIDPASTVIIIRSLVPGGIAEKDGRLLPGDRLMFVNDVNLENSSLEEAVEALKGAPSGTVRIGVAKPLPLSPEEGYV

MAGI2_6, Q86UL8 = target: MAGI2_6, Q86UL8
MAGI2_6, Q86UL8, sequence (Q86UL8 1141-1229): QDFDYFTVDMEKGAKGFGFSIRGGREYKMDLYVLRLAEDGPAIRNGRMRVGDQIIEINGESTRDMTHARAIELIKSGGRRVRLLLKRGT

GORASP2, Q9H8Y8 = target: GORASP2, Q9H8Y8
HTRA4, P83105 = target: T11, HTRA4, P83105
T11 sequence (P83105 378-476, limits assumed, looked up): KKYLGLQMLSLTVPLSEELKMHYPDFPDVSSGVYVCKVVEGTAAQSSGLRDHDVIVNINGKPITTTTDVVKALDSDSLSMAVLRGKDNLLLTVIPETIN

ARHGEF12, Q9NZN5-2 = target: ARHGEF12, Q9NZN5-2
ARHGEF12, Q9NZN5-2, sequence (Q9NZN5 other isoform, or with tags, fused parts or gaps): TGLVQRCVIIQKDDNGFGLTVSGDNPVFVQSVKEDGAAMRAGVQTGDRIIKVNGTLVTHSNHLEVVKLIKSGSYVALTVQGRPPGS

DLG3_3, Q92796 = target: T12, DLG3_3, Q92796
T12 sequence (Q92796 374-475, limits assumed, looked up): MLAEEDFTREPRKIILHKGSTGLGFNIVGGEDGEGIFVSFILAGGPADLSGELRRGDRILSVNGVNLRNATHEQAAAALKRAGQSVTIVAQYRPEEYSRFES

NHERF3_3, Q5T2W1 = target: T13, NHERF3_3, Q5T2W1
T13 sequence (Q5T2W1 238-333, limits assumed, looked up): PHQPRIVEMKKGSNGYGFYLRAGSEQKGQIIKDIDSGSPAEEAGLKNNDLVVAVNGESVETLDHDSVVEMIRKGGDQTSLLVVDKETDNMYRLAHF

LNX1_1, Q8TBB1 = target: LNX1_1, Q8TBB1
LNX1_1, Q8TBB1, sequence (Q8TBB1 261-371): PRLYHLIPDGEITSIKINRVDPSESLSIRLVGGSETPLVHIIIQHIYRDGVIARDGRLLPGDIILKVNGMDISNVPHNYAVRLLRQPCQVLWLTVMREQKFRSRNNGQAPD

[1] = plain residues with an end cap or a label only (N-terminal biotin on a linker: ado-ado)
[2] = plain residues with an end cap or a label only (N-terminal biotin on a linker: ahx)

pKd (PCLO, Q9Y6V0; [1]): below the threshold
pKd (ARHGAP21, Q5T5U3; [1]): 3.8
pKd (MAGI1_1, Q96QZ7; [1]): below the threshold
pKd (APBA1_1, Q02410; [1]): below the threshold
pKd (DLG3_1, Q92796; [1]): 4.3
pKd (PTPN3, P26045; [1]): 4.94
pKd (TJP3_3, O95049; [1]): below the threshold
pKd (DLG1_1, Q12959; [1]): 4.7
pKd (LIMK2, P53671; [1]): below the threshold
pKd (RHPN1, Q8TCX5; [1]): 3.76
pKd (MPP6, Q9NZW5; [1]): below the threshold
pKd (PDZRN4_1, Q6ZMN7; [1]): 4.4
pKd (HTRA3, P83110; [1]): below the threshold
pKd (GORASP1, Q9BQQ3; [1]): below the threshold
pKd (LNX1_3, Q8TBB1; [1]): below the threshold
pKd (DFNB31_1, Q9P202; [1]): 3.75
pKd (MPDZ_5, O75970; [1]): below the threshold
pKd (MAGI2_6, Q86UL8; [1]): 4.3
pKd (GORASP2, Q9H8Y8; [1]): below the threshold
pKd (HTRA4, P83105; [1]): 3.87
pKd (ARHGEF12, Q9NZN5-2; [1]): 3.82
pKd (DLG3_3, Q92796; [1]): 4.48
pKd (NHERF3_3, Q5T2W1; [1]): below the threshold
pKd (LNX1_1, Q8TBB1; [1]): 3.78
B1: FAM110D, Q8TAY7 (peptide)
chain: ARGPPRESEV

pKd (PCLO, Q9Y6V0; [2]): below the threshold
pKd (ARHGAP21, Q5T5U3; [2]): below the threshold
pKd (MAGI1_1, Q96QZ7; [2]): below the threshold
pKd (APBA1_1, Q02410; [2]): below the threshold
pKd (DLG3_1, Q92796; [2]): below the threshold
pKd (PTPN3, P26045; [2]): 4.45
pKd (TJP3_3, O95049; [2]): below the threshold
pKd (DLG1_1, Q12959; [2]): below the threshold
pKd (LIMK2, P53671; [2]): below the threshold
pKd (RHPN1, Q8TCX5; [2]): 3.79
pKd (MPP6, Q9NZW5; [2]): below the threshold
pKd (PDZRN4_1, Q6ZMN7; [2]): 4.17
pKd (HTRA3, P83110; [2]): below the threshold
pKd (GORASP1, Q9BQQ3; [2]): 3.51
pKd (LNX1_3, Q8TBB1; [2]): below the threshold
pKd (DFNB31_1, Q9P202; [2]): below the threshold
pKd (MPDZ_5, O75970; [2]): below the threshold
pKd (MAGI2_6, Q86UL8; [2]): below the threshold
pKd (GORASP2, Q9H8Y8; [2]): below the threshold
pKd (HTRA4, P83105; [2]): below the threshold
pKd (ARHGEF12, Q9NZN5-2; [2]): 4.79
pKd (DLG3_3, Q92796; [2]): 3.85
pKd (NHERF3_3, Q5T2W1; [2]): below the threshold
pKd (LNX1_1, Q8TBB1; [2]): below the threshold
B2: FRMPD1, Q5SYB0 (peptide)
chain: TQKFRASTAL

pKd (PCLO, Q9Y6V0; [1]): below the threshold
pKd (ARHGAP21, Q5T5U3; [1]): 3.9
pKd (MAGI1_1, Q96QZ7; [1]): below the threshold
pKd (APBA1_1, Q02410; [1]): below the threshold
pKd (DLG3_1, Q92796; [1]): below the threshold
pKd (PTPN3, P26045; [1]): below the threshold
pKd (TJP3_3, O95049; [1]): 3.65
pKd (DLG1_1, Q12959; [1]): below the threshold
pKd (LIMK2, P53671; [1]): below the threshold
pKd (RHPN1, Q8TCX5; [1]): below the threshold
pKd (MPP6, Q9NZW5; [1]): below the threshold
pKd (PDZRN4_1, Q6ZMN7; [1]): 3.66
pKd (HTRA3, P83110; [1]): 4.15
pKd (GORASP1, Q9BQQ3; [1]): 3.69
pKd (LNX1_3, Q8TBB1; [1]): below the threshold
pKd (DFNB31_1, Q9P202; [1]): below the threshold
pKd (MPDZ_5, O75970; [1]): below the threshold
pKd (MAGI2_6, Q86UL8; [1]): below the threshold
pKd (GORASP2, Q9H8Y8; [1]): 4.01
pKd (HTRA4, P83105; [1]): 3.98
pKd (ARHGEF12, Q9NZN5-2; [1]): 3.73
pKd (DLG3_3, Q92796; [1]): below the threshold
pKd (NHERF3_3, Q5T2W1; [1]): below the threshold
pKd (LNX1_1, Q8TBB1; [1]): 3.57
B3: CLDN4, O14493 (peptide)
chain: ARSAAASNYV
